Source: US20060216692, “Switchable nucleic acids for diagnostics, screening and molecular electronics” (published 2006)

Legend:
[1] = target: NCp7 (nucleocapsid protein, Zn2.NCp7(1-55)) (HIV-1) (UniProt P35962); details: Trp assay; virtually identical Kd to 20mer
[2] = target: T1, NCp7 (nucleocapsid protein, Zn2.NCp7(1-55)) (HIV-1, UniProt P35962 SEQ:1-55); assay: Trp37 quenching, 0.2 M NaCl; equivalent of three NCp7 bound with high affinity per RNA; details: about 3 per 154mer); SL1-SL4 stem-loops
T1 chain: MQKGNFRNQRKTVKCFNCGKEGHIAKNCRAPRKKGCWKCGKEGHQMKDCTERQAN

In the case of SL3 16mer, the binding signal (fold of SL3 20mer) [1] is reported as 1.

B1: 154mer packaging domain (ssRNA)
RNA: GGAGCUCUCUCGACGCAGGACUCGGCUUGCUGAAGCGCGCACGGCAAGAGGCGAGGGGCGGCGACUGGUGAGUACGCCAAAAAUUUUGACUAGCGGAGGCUAGAAGGAGAGAGAUGGGUGCGAGAGCGUCAGUAUUAAGCGGGGGAGAAUUAGA
B1: binds [2].
